Key:
mouse serum albumin [1] = target: T1, mouse serum albumin (mouse, UniProt P07724 25-608); test: SPR ProteOn XPR36, MSA immobilized (GLC sensor), pH 6.0, Langmuir 1:1 fit
T1 construct: Bought protein; also called MSA
Protocol: (§1) In a first experiment, the affinities of monovalent (ALB00223) and a bivalent ALB23002 construct (T032200003) for human and mouse serum albumin (HSA and MSA, respectively) at pH 6.0 and pH 7.4 were determined on a ProteOn XPR36 instrument (Bio-rad Laboratories, Inc.). HSA or MSA (HSA: Sigma-Aldrich—Sigma, Cat No. A8763; MSA: Albumin Bioscience, Cat No. 2601) was immobilized via amine coupling on a GLC sensor (short matrix, normal capacity). The constructs were injected at 6 different concentrations (between 0.95 and 500 nM) and allowed to associate for 120 s at 45 μL/min and dissociate for 600 s. Evaluation of the sensorgrams was based on the Kinetic Langmuir 1:1 (simultaneous ka/kd) fit.

mouse serum albumin [2] = target: T1, mouse serum albumin; test: SPR ProteOn XPR36, MSA immobilized (GLC sensor), pH 7.4, Langmuir 1:1 fit
Protocol: as §1

human serum albumin [3] = target: T2, human serum albumin (human, UniProt P02768 25-609); test: SPR ProteOn XPR36, HSA immobilized (GLC sensor), pH 7.4, Langmuir 1:1 fit
T2 construct: Bought protein; also called HSA
Protocol: as §1

human serum albumin [4] = target: T2, human serum albumin; test: SPR ProteOn XPR36, HSA immobilized (GLC sensor), pH 6.0, Langmuir 1:1 fit
Protocol: as §1

mouse serum albumin [5] = target: T1, mouse serum albumin; test: SPR Biacore 8K+, MSA immobilized (C1 chip), pH 7.4, bivalent analyte fit (KD1)
Protocol: (§2) The constructs containing a 9GS and 35GS linker between the albumin-binding building blocks were selected for further characterization. The affinities of the purified ISVD expression constructs for human and mouse serum albumin (HSA and MSA, respectively) at pH 6.0 and pH 7.4 were determined on a Biacore 8K+ instrument. HSA or MSA (HSA: Sigma-Aldrich-Sigma, Cat No. A8763; MSA: Albumin Bioscience, Cat No. 2601) was immobilized on a Series S Sensor Chip C1. The fusion proteins as described in Table 7 above were injected at 9 different concentrations (between 0.6 and 2000 nM) and allowed to associate for 120 s at 30 μL/min and dissociate for 600 s. Evaluation of the sensorgrams was based on the bivalent analyte fit.

human serum albumin [6] = target: T2, human serum albumin; test: SPR Biacore 8K+, HSA immobilized (C1 chip), pH 7.4, bivalent analyte fit (KD1)
Protocol: as §2

human serum albumin [7] = target: T2, human serum albumin; test: SPR Biacore 8K+, HSA immobilized (C1 chip), pH 6.0, bivalent analyte fit (kd1)
Protocol: as §2

mouse serum albumin [8] = target: T1, mouse serum albumin; test: SPR Biacore 8K+, MSA immobilized (C1 chip), pH 6.0, bivalent analyte fit (ka1)
Protocol: as §2

mouse serum albumin [9] = target: T1, mouse serum albumin; test: SPR Biacore 8K+, MSA immobilized (C1 chip), pH 7.4, bivalent analyte fit (kd1)
Protocol: as §2

human serum albumin [10] = target: T2, human serum albumin; test: SPR Biacore 8K+, HSA immobilized (C1 chip), pH 7.4, bivalent analyte fit (ka1)
Protocol: as §2

mouse serum albumin [11] = target: T1, mouse serum albumin; test: SPR Biacore 8K+, MSA immobilized (C1 chip), pH 6.0, bivalent analyte fit (KD1)
Protocol: as §2

human serum albumin [12] = target: T2, human serum albumin; test: SPR Biacore 8K+, HSA immobilized (C1 chip), pH 7.4, bivalent analyte fit (kd1)
Protocol: as §2

human serum albumin [13] = target: T2, human serum albumin; test: SPR Biacore 8K+, HSA immobilized (C1 chip), pH 6.0, bivalent analyte fit (ka1)
Protocol: as §2

mouse serum albumin [14] = target: T1, mouse serum albumin; test: SPR Biacore 8K+, MSA immobilized (C1 chip), pH 6.0, bivalent analyte fit (kd1)
Protocol: as §2

human serum albumin [15] = target: T2, human serum albumin; test: SPR Biacore 8K+, HSA immobilized (C1 chip), pH 6.0, bivalent analyte fit (KD1)
Protocol: as §2

mouse serum albumin [16] = target: T1, mouse serum albumin; test: SPR Biacore 8K+, MSA immobilized (C1 chip), pH 7.4, bivalent analyte fit (ka1)
Protocol: as §2

T1 sequence (P07724 25-608 limits assumed): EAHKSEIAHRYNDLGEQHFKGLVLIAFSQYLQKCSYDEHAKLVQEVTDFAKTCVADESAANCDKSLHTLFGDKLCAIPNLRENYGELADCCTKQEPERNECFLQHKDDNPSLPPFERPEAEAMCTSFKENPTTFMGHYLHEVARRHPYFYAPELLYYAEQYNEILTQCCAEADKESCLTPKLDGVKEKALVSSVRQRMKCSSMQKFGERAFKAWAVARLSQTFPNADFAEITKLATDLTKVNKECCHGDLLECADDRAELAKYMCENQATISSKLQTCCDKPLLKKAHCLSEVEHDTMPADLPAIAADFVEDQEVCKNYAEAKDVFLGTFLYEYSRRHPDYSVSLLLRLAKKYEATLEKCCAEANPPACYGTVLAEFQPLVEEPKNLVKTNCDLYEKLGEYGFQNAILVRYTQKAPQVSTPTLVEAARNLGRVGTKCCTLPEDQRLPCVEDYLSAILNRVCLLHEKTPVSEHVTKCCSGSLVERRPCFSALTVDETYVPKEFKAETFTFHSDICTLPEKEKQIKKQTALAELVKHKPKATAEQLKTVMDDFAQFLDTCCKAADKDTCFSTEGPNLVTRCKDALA

B1: ALB00223 (VHH)
VHH: EVQLVESGGGVVQPGGSLRLSCAASGFTFRSFGMSWVRQAPGKGPEWVSSISGSGSDTLYADSVKGRFTISRDNSKNTLYLQMNSLRPEDTALYYCTIGGSLSRSSQGTLVTVSS
notes: also called ALB00223-A; Alb223
Kd (mouse serum albumin [1]): 6.02 nM | koff (mouse serum albumin [1]): 0.00618 s⁻¹ | kon (mouse serum albumin [1]): 1.03e+06 M⁻¹ s⁻¹ | Kd (mouse serum albumin [2]): 9.09 nM | koff (mouse serum albumin [2]): 0.00697 s⁻¹ | kon (mouse serum albumin [2]): 767000 M⁻¹ s⁻¹ | Kd (human serum albumin [3]): 1.37 nM | koff (human serum albumin [3]): 0.000809 s⁻¹ | kon (human serum albumin [3]): 592000 M⁻¹ s⁻¹ | Kd (human serum albumin [4]): 0.69 nM | koff (human serum albumin [4]): 0.000593 s⁻¹ | kon (human serum albumin [4]): 853000 M⁻¹ s⁻¹

B2: T032200003 (VHH)
chain: EVQLVESGGGVVQPGGSLRLSCAASGFTFRSFGMSWVRQAPGKGPEWVSSISGSGSDTLYADSVKGRFTISRDNSKNTLYLQMNSLRPEDTALYYCTIGGSLSRSSQGTLVTVSSGGGGSGGGGSGGGGSGGGGSGGGGSGGGGSGGGGSEVQLVESGGGVVQPGGSLRLSCAASGFTFRSFGMSWVRQAPGKGPEWVSSISGSGSDTLYADSVKGRFTISRDNSKNTLYLQMNSLRPEDTALYYCTIGGSLSRSSQGTLVTVSS
notes: also called ALB23002-35GS-ALB23002; bivalent ALB23002 construct
Kd (mouse serum albumin [1]): 1.61 nM | koff (mouse serum albumin [1]): 0.00164 s⁻¹ | kon (mouse serum albumin [1]): 1.02e+06 M⁻¹ s⁻¹ | Kd (mouse serum albumin [2]): 1.96 nM | koff (mouse serum albumin [2]): 0.00167 s⁻¹ | kon (mouse serum albumin [2]): 854000 M⁻¹ s⁻¹ | Kd (human serum albumin [3]): 0.865 nM | koff (human serum albumin [3]): 0.000461 s⁻¹ | kon (human serum albumin [3]): 533000 M⁻¹ s⁻¹ | Kd (human serum albumin [4]): 0.512 nM | koff (human serum albumin [4]): 0.000388 s⁻¹ | kon (human serum albumin [4]): 759000 M⁻¹ s⁻¹

B3: T026301365 (VHH, not shown: large carriers; small tags and cut ends)
chain: EVQLVESGGGVVQPGGSLRLSCAASGFTFRSFGMSWVRQAPGKGPEWVSSISGSGSDTLYADSVKGRFTISRDNSKNTLYLQMNSLRPEDTALYYCTIGGSLSRSSQGTLVTVSSGGGGSGGGGSGGGGSGGGGSGGGGSGGGGSGGGGSEVQLVESGGGVVQPGGSLRLSCAASGFTFRSFGMSWVRQAPGKGPEWVSSISGSGSDTLYADSVKGRFTISRDNSKNTLYLQMNSLRPEDTALYYCTIGGSLSRSSQGTLVTVSSA
notes: Tetravalent ISVD fusion protein made in P. pastoris; X and Y are undisclosed target ISVDs; also called X-9GS-Y-9GS-ALB23002-35GS-Alb223
Kd (mouse serum albumin [5]): 140 nM | Kd (human serum albumin [6]): 9.9 nM | koff (human serum albumin [7]): 0.0016 s⁻¹ | kon (mouse serum albumin [8]): 58000 M⁻¹ s⁻¹ | koff (mouse serum albumin [9]): 0.0043 s⁻¹ | kon (human serum albumin [10]): 160000 M⁻¹ s⁻¹ | Kd (mouse serum albumin [11]): 100 nM | koff (human serum albumin [12]): 0.0016 s⁻¹ | kon (human serum albumin [13]): 180000 M⁻¹ s⁻¹ | koff (mouse serum albumin [14]): 0.0059 s⁻¹ | Kd (human serum albumin [15]): 8.8 nM | kon (mouse serum albumin [16]): 32000 M⁻¹ s⁻¹

B4: T026301360 (VHH, not shown: large carriers; small tags and cut ends)
chain: EVQLVESGGGVVQPGGSLRLSCAASGFTFRSFGMSWVRQAPGKGPEWVSSISGSGSDTLYADSVKGRFTISRDNSKNTLYLQMNSLRPEDTALYYCTIGGSLSRSSQGTLVTVSSGGGGSGGGSEVQLVESGGGVVQPGGSLRLSCAASGFTFRSFGMSWVRQAPGKGPEWVSSISGSGSDTLYADSVKGRFTISRDNSKNTLYLQMNSLRPEDTALYYCTIGGSLSRSSQGTLVTVSSA
notes: Tetravalent ISVD fusion protein made in P. pastoris; X and Y are undisclosed target ISVDs; also called X-9GS-Y-9GS-ALB23002-9GS-Alb223; X-Y-Alb23002-Alb223
Kd (mouse serum albumin [5]): 210 nM | Kd (human serum albumin [6]): 12 nM | koff (human serum albumin [7]): 0.0015 s⁻¹ | kon (mouse serum albumin [8]): 190000 M⁻¹ s⁻¹ | koff (mouse serum albumin [9]): 0.034 s⁻¹ | kon (human serum albumin [10]): 120000 M⁻¹ s⁻¹ | Kd (mouse serum albumin [11]): 210 nM | koff (human serum albumin [12]): 0.0015 s⁻¹ | kon (human serum albumin [13]): 170000 M⁻¹ s⁻¹ | koff (mouse serum albumin [14]): 0.04 s⁻¹ | Kd (human serum albumin [15]): 9 nM | kon (mouse serum albumin [16]): 170000 M⁻¹ s⁻¹

Reference: patent US20250129145A1 (Ablynx, published 2025)
